These results are taken from patent publication US6638503.

The target in one data set is Bovine serum albumin (UniProt P02769).
The test system of data set [1] is bovine serum albumin, haemoglobin, fibrinogen and thrombin.
A further data set concerns the target Human fibrinogen (UniProt P02671).

Chain of Bovine serum albumin (P02769 25-607): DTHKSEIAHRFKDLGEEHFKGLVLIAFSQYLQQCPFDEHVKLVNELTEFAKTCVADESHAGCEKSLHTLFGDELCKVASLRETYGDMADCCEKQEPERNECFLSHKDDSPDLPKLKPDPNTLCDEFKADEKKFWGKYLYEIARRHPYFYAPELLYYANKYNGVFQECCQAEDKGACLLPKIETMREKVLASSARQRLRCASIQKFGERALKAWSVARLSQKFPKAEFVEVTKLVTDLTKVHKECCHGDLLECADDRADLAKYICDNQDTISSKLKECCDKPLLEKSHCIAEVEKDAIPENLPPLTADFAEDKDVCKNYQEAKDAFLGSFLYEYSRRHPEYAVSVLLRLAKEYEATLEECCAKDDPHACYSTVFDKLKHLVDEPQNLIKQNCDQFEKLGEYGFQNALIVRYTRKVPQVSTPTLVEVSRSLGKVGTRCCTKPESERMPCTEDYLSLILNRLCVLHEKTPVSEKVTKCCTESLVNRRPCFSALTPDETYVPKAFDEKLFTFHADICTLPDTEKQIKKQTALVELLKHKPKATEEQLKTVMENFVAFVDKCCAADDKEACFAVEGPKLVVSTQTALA
Chain of plasminogen (chain, as listed by the source): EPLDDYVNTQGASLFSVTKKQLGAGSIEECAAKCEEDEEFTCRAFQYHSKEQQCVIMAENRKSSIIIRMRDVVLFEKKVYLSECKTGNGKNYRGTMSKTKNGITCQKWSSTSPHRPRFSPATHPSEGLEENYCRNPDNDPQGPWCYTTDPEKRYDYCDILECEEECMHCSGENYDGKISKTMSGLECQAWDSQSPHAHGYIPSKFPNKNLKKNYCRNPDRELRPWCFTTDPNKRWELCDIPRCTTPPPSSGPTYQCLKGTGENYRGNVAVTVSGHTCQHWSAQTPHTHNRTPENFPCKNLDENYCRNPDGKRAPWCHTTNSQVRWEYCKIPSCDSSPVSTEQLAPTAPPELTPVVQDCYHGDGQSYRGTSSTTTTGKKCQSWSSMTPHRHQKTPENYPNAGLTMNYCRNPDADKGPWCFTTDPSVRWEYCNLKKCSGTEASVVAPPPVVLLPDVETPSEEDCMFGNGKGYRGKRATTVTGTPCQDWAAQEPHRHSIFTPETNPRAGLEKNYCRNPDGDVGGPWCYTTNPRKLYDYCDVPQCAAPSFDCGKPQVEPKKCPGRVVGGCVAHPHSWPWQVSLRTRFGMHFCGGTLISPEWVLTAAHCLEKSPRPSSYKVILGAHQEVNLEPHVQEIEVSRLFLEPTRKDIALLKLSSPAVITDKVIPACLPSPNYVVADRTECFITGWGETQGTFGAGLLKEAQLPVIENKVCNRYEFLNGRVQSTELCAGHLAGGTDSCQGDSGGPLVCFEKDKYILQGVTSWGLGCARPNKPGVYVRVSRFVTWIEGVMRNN
Chain of Human fibrinogen (P02671 20-629, chain 1 of 3): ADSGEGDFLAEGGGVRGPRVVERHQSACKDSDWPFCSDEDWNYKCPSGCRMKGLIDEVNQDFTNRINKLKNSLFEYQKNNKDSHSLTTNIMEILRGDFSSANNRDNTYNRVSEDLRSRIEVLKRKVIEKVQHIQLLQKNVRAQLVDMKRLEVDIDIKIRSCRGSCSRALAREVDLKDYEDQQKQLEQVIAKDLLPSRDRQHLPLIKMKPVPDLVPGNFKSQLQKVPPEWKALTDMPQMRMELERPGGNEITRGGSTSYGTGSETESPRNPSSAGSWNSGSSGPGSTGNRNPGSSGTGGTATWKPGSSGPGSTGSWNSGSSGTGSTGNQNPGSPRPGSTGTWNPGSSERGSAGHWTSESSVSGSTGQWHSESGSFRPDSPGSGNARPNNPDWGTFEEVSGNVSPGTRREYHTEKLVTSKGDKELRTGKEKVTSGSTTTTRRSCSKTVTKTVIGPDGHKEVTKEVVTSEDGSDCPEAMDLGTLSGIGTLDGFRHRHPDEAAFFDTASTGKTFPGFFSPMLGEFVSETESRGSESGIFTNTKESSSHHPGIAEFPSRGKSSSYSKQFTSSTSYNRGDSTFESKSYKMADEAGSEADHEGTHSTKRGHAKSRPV
Chain of Human fibrinogen (chain, as listed by the source, chain 2 of 3): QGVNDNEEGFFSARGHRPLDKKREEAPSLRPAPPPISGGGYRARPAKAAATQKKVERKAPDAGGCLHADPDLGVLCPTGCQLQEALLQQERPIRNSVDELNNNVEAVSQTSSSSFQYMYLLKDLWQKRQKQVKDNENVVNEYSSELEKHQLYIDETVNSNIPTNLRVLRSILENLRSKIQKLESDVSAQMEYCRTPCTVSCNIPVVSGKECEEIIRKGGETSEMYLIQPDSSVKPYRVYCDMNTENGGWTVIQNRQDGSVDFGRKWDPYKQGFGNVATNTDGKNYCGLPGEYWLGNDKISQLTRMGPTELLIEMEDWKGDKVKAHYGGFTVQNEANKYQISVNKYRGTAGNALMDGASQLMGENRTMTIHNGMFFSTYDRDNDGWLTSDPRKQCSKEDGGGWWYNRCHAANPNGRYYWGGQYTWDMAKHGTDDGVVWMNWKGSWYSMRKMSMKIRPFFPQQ
Chain of Human fibrinogen (chain, as listed by the source, chain 3 of 3): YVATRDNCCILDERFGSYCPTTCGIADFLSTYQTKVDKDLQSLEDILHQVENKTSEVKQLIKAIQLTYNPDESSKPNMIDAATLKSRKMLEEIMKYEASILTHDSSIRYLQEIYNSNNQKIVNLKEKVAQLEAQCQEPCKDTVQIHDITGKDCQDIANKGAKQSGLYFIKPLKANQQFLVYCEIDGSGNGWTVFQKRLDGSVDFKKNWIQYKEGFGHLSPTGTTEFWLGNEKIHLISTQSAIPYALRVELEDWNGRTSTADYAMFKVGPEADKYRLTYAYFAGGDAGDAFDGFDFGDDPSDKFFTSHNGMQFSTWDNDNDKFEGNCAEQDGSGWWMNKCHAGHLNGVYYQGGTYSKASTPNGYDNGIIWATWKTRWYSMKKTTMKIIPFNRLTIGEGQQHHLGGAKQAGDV

Turning to “actinokinase (fibrinolytic enzyme from Streptomyces megasporus SD5)”, the Relative activity (%) in the data set with Hemoglobin is 8%; in the data set with Bovine serum albumin, 32%; with Fibrin it was 100%; in the data set with Thrombin, 27%; with Human fibrinogen it was 12%. Moreover, in data set [1], the “proteolytic activity, % of the control” value is given as “varied from 5-30% of the control”. Moreover, the caseinolytic activity with casein is on record as 1.0×10^2 µmole/tyrosine mg^-1 protein min^-1. Also, the fibrinolytic activity with Fibrin was 1.0×10^3 µmole/ tyrosine mg^-1 protein min^-1. In addition, the “amidolytic activity with and without added plasminogen” value with plasminogen is “Amydolytic activity exhibited by the enzyme was same in presence and absence of plasminogen”.
